The source of these data is patent publication US20140294828A1 (COMPLIX, published 2014).

This assay has as its target HIV-1 Env of the HXB2 strain (envelope glycoprotein complex gp120/gp41) (HIV-1 (HXB2 strain), UniProt P04578 33-856). The assay can be described thus: cell-based or functional assay.

B1: single-chain Alphabody scAB_Env03_KC (designed binder)
chain: MGHHHHHHHHHHSSGHIEGRHMSIEEIQKPIATIQEAIAWIQKKIYMMTGGSGGGSGGGSGGGSGMSIEEIQKQIAAIQCQIAAIQKQIYAMTGGSGGGSGGGSGGGSGMSIEEIQKQIVAIMEQIVAIVKQISAMTP
modifications: Interchain disulfide between Cys80 of chain 1 and Cys80 of chain 2 (homodimer; paragraph 268, and FIG.11 prints 'scAB_Env03_KC (dimer)').
notes: also called Env03 Cys-mutant
Take B1: the “50% inhibitory concentration (IC50), 5-day MTT infection assay, HXB2 virus on MT4-X4 cells” value is 709 nM.
